Assay results: patent publication US20220144936A1
pKd: −log10 of the molar value.

Legend:
[1] = target: recombinant human IL17A protein (human) (UniProt Q16552); assay: Octet (BLI), biotinylated IL17A, antibody 0.90-13.9 nM
[2] = target: recombinant human IL17A/F dimer protein (SinoBiological, Inc., CT047-HNAE) (human) (UniProt Q16552); assay: cell-based or functional assay
[3] = target: recombinant human IL17A protein (human) (UniProt Q16552); assay: cell-based or functional assay
[4] = target: recombinant human IL17A/F dimer protein (SinoBiological, Inc., CT047-HNAE) (human) (UniProt Q16552); assay: Octet (BLI), biotinylated IL17A/F, antibody 0.90-13.9 nM
[5] = target: recombinant human IL17A protein (human) (UniProt Q16552); assay: ELISA: IL17A coated at different concentrations, antibody fixed at 2 µg/mL, anti-human IgG Fc/HRP; EC50 is on the antigen concentration
[6] = target: recombinant human IL17A/F dimer protein (SinoBiological, Inc., CT047-HNAE) (human) (UniProt Q16552); assay: ELISA: IL17A/F coated at different concentrations, antibody fixed at 2 µg/mL, anti-human IgG Fc/HRP; EC50 is on the antigen concentration
[7] = target: recombinant human IL17A protein (human) (UniProt Q16552); assay: competition ELISA: IL17A coated, competitor IL17RA-His-biotin at 2 µg/mL, antibody varied
[8] = target: recombinant human IL17A/F dimer protein (SinoBiological, Inc., CT047-HNAE) (human) (UniProt Q16552); assay: competition ELISA: IL17RA-Fc coated (competitor), IL17A/F-Biotin at 0.8 µg/mL, antibody varied

Chain of recombinant human IL17A protein (human) (Q16552 24-155 limits assumed): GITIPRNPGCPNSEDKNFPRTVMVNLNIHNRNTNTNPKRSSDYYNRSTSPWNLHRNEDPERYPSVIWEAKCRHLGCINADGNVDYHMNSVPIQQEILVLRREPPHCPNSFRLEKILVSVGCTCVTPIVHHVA
Chain of recombinant human IL17A/F dimer protein (SinoBiological, Inc., CT047-HNAE) (human) (Q16552 24-155 limits assumed, chain 1 of 2): as the sequence (Q16552 24-155 limits assumed) above
Chain of recombinant human IL17A/F dimer protein (SinoBiological, Inc., CT047-HNAE) (human) (Q96PD4 31-163 limits assumed, chain 2 of 2, further chain): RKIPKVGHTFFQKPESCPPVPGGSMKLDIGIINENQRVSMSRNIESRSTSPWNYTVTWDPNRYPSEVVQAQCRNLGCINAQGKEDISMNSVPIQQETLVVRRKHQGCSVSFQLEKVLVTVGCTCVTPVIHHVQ

COSENTYX (Norvatis, SHM12) (antibody)
pKd [1]: 10.02 | EC50 (µg/mL), blocking IL17A/F-induced IL6 secretion of HFF cells [2]: 2.25 µg/mL | Maximum neutralization rate (%), IL17A/F-induced IL6 secretion of HFF cells [2]: 79.5% | EC50 (µg/mL), blocking IL17A-induced IL6 secretion of HFF cells [3]: 0.22 µg/mL | Maximum neutralization rate (%), IL17A-induced IL6 secretion of HFF cells [3]: 51.6% | pKd [4]: 8.96

COSENTYX biosimilar (SinoCelltech Co., Ltd.) (antibody)
EC50 [5]: 0.0748 µg/mL | EC50 [6]: 0.0639 µg/mL

Taltz (Eli Lilly) (antibody)
EC50 (µg/mL), blocking IL17A/F-induced IL6 secretion of HFF cells [2]: 1.1 µg/mL | Maximum neutralization rate (%), IL17A/F-induced IL6 secretion of HFF cells [2]: 76.3% | EC50 (µg/mL), blocking IL17A-induced IL6 secretion of HFF cells [3]: 0.19 µg/mL | Maximum neutralization rate (%), IL17A-induced IL6 secretion of HFF cells [3]: 95.9% | IC50 [7]: 0.5 µg/mL | maximum inhibition rate [7]: 89.5%

Taltz biosimilar (SinoCelltech Co., Ltd.) (antibody)
maximum inhibition rate [8]: 75% | EC50 of blocking IL17A-induced IL-6 secretion of HFF cells [3]: 0.247 µg/mL | maximum inhibition rate of IL17A-induced IL-6 secretion of HFF cells [3]: 97.3%
